# Measured values: US20230265151A1, “GIP/GLP1 CO-AGONIST COMPOUNDS” (priority 2020, published 2023)
# T1: human GIP receptor (human, UniProt P48546 22-466)
# T1 construct: whole, on cells; also called hGIPR; human glucose-dependent insulinotropic polypeptide receptor
# T1 sequence (looked up): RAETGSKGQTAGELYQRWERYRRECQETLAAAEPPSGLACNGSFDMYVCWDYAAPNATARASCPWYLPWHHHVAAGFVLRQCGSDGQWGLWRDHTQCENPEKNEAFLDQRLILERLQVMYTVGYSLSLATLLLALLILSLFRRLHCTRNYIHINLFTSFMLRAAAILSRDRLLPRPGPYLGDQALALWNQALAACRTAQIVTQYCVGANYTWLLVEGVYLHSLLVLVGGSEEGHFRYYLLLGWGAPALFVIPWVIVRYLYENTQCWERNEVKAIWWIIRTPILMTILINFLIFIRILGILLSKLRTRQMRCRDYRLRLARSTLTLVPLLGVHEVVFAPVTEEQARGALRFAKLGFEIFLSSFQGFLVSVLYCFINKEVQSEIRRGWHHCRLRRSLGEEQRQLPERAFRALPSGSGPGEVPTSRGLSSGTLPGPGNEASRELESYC
# Legend:
# human GLP-1 receptor = molecular target: T2, human GLP-1 receptor (human, UniProt P43220 24-463); assay: SPA competition vs [125I]-GLP-1, hGLP-1R membranes
# T2 construct: whole, on cells; also called hGLP-1R; human glucagon-like peptide-1 receptor
# Summary of the method: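 Competition binding in 25 mM HEPES pH 7.4, 2.5 mM CaCl₂, 1 mM MgCl₂, 0.1% bacitracin, 0.003% TWEEN-20, EDTA-free protease inhibitors. IC₅₀ from four-parameter nonlinear fit; Kᵢ given as geometric mean ± SEM, n = independent replicates on different days.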
# human glucagon receptor = molecular target: T3, human glucagon receptor (human, UniProt P47871 26-477); assay: SPA competition vs [125I]-Gcg, hGcgR membranes
# T3 construct: whole, on cells; also called hGCGR; hGcgR
# Protocol: The binding buffer contains 25 mM 4-(2-hydroxyethyl)-1-piperazineethanesulfonic acid (HEPES), pH 7.4, 2.5 mM CaCl₂, 1 mM MgCh, 0.1% (w/v) bacitracin (Research Products), 0.003% (w/v) Polyoxyethylenesorbitan monolaurate (TWEEN®-20), and Roche Complete™ Protease Inhibitors without EDTA. […] Plates are sealed and mixed on a plate shaker (setting 6) for 1 minute and read with a PerkinElmer Trilux MicroBeta® scintillation counter after 12 hours of incubation/settling time at room temperature.
# Data are analyzed using four-parameter (curve maximum, curve minimum, IC₅₀, Hill slope) nonlinear regression routines (Genedata Screener, version 12.0.4, Genedata AG, Basal, Switzerland). […] Values for Kᵢ are reported as the geometric mean, with error expressed as the standard error of the mean (SEM) and n is equal to the number of independent replicates (determined in assays performed on different days).
# human GIP receptor = molecular target: T1, human GIP receptor; assay: SPA competition vs [125I]-GIP, hGIPR membranes
# T3 sequence (P47871 26-477): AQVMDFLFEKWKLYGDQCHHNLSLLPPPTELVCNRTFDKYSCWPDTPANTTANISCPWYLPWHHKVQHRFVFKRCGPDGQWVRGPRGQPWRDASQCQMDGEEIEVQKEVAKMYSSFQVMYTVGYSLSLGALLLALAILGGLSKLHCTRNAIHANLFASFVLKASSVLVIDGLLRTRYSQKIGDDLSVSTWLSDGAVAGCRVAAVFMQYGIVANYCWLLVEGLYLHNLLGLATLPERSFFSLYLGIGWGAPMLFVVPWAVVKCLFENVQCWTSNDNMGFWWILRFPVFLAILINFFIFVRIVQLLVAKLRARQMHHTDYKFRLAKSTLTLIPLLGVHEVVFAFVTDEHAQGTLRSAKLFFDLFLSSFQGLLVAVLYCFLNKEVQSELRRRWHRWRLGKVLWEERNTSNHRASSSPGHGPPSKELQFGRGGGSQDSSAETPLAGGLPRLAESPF
Binder,Ki (human GLP-1 receptor),Ki (human glucagon receptor),Ki (human GIP receptor)
"YXEGTXTSDXSIXLDXKAQXKFIXXLIXGGPSSGAPPPS (Aib2, αMeF(2F)6, 4Pal10, αMeL13, Orn16, K17(Z1), Aib20, K21(Z1), D-Glu24, αMeY25, Orn28, C-term NH2; Z1=AEEA2-(γ-Glu)-CO-(CH2)10-CH3)",119 pM,14300 pM,13.1 pM
"YXEGTXTSDXSIXLDXKAQXEFIXXLIEGGKSSGAPPPS (Aib2, αMeF(2F)6, 4Pal10, αMeL13, Orn16, K17(Z1), Aib20, D-Glu24, αMeY25, K31(Z1), C-term NH2; Z1=AEEA2-(γ-Glu)-(4-(4-iodophenyl)butanoyl))",471 pM,711000 pM,62.9 pM
"YXEGTXTSDXSIXLDXIAQXEFIKXLIKGGPSSGAPPPS (Aib2, αMeF(2F)6, 4Pal10, αMeL13, Orn16, Aib20, K24(Z1), αMeY25, K28(Z1), C-term NH2; Z1=AEEA2-(γ-Glu)-CO-(CH2)12-CO2H)",1670 pM,151000 pM,120 pM
"YXEGTXTSDXSIXLDXIAQXKFIXXLIEGGPSSGAPPPSK (Aib2, αMeF(2F)6, 4Pal10, αMeL13, Orn16, Aib20, K21(Z1), D-Glu24, αMeY25, K40(Z1), C-term NH2; Z1=AEEA2-(γ-Glu)-CO-(CH2)12-CO2H)",2800 pM,206000 pM,107 pM
"YXEGTXTSDXSIXLDXKAQXEFIXXLIEGGPSSGAPPPSK (Aib2, αMeF(2F)6, 4Pal10, αMeL13, Orn16, K17(Z1), Aib20, D-Glu24, αMeY25, K40(Z1), C-term NH2; Z1=AEEA2-(γ-Glu)-CO-(CH2)10-CH3)",194 pM,13900 pM,29.1 pM
"YXEGTXTSDXXIXLDXQAQXEFIKXLIKGGPSSGAPPPS (Aib2, αMeF(2F)6, 4Pal10, Aib11, αMeL13, Orn16, Aib20, K24(Z1), αMeY25, K28(Z1), C-term NH2; Z1=AEEA2-(γ-Glu)-(10-(4-carboxyphenoxy)decanoyl))",424 pM,134000 pM,37.5 pM
"YXEGTXTSDXXIXLDXIAQXEFIKXLIKGGPSSGAPPPS (Aib2, αMeF(2F)6, 4Pal10, Aib11, αMeL13, Orn16, Aib20, K24(Z1), αMeY25, K28(Z1), C-term NH2; Z1=AEEA2-(γ-Glu)-CO-(CH2)12-CO2H)",939 pM,135000 pM,114 pM
"YXEGTXTSDXXIXLDXIAQXEFIKXLIKGGPSSGAPPPS (Aib2, αMeF(2F)6, 4Pal10, Aib11, αMeL13, Orn16, Aib20, K24(Z1), αMeY25, K28(Z1), C-term NH2; Z1=AEEA2-(γ-Glu)-(10-(4-carboxyphenoxy)decanoyl))",557 pM,44600 pM,43.2 pM
"YXEGTXTSDXXIXLDXIAQXEFIKXLIKGGPSSGAPPPS (Aib2, αMeF(2F)6, 4Pal10, αMeS11, αMeL13, Orn16, Aib20, K24(Z1), αMeY25, K28(Z1), C-term NH2; Z1=AEEA2-(γ-Glu)-CO-(CH2)12-CO2H)",863 pM,328000 pM,49.1 pM
